Experimental findings from article doi:10.1101/2021.07.12.452133 are described below.

Assay [1] has as its target MBP-tagged delVirB4_CTn4 (NH2-terminally truncated VirB4-like ATPase of the CTn4 locus, C. difficile 630) (Clostridioides difficile strain 630). Put plainly: negative-stain transmission electron microscopy.
For assay [2] the target is unchanged. Put plainly: SEC. (In general: Size exclusion chromatography separates by hydrodynamic size, large species first.)
Assay [3] deals with MBP-tagged delVirD4_CTn4 (NH2-terminally truncated VirD4-like ATPase of the CTn4 locus, C. difficile 630) (Clostridioides difficile strain 630). The assay can be described thus: negative-stain transmission electron microscopy.
Assay [4] shares this target. Put plainly: SEC.

Usually stoichiometry N stands for the number of molecules, sites or subunits per partner or assembly. Turning to “MBP-tagged delVirB4_CTn4 (NH2-terminally truncated VirB4-like ATPase of the CTn4 locus, C. difficile 630) (domain or fragment)”, in assay [1], the stoichiometry N was in the range of 6 to 7. In assay [2], the oligomerization rate was found to be 100% and the stoichiometry N was more than 6 monomers.
“MBP-tagged delVirD4_CTn4 (NH2-terminally truncated VirD4-like ATPase of the CTn4 locus, C. difficile 630) (domain or fragment)”: the stoichiometry N in assay [3] fell in the range of 6 to 7. In assay [4], this substance yielded an oligomerization rate of 100% and a stoichiometry N of more than 6 monomers.
